This is an account of results in US20200261595A1 (Novo Nordisk, published 2020).

Sequences and labels used below:
B1: (A14E, A21G, A22(GQAP)19, A98K^, A99P, B25H, B29R, desB30 human insulin)/(227A, 234A, 235K, 297E, 315Q, 384Q, des447 hIgG4-Fc(228-447)) … (other)
chain 1: GIVEQCCTSICSLEQLENYCGGQAPGQAPGQAPGQAPGQAPGQAPGQAPGQAPGQAPGQAPGQAPGQAPGQAPGQAPGQAPGQAPGQAPGQAPGQAPKP
chain 2: FVNQHLCGSHLVEALYLVCGERGFHYTPR
chain 3: ASCPAPEAKGGPSVFLFPPKPKDTLMISRTPEVTCVVVDVSQEDPEVQFNWYVDGVEVHNAKTKPREEQFESTYRVVSVLTVLHQDWLQGKEYKCKVSNKGLPSSIEKTISKAKGQPREPQVYTLPPSQEEMTKNQVSLTCLVKGFYPSDIAVEWESQGQPENNYKTTPPVLDSDGSFFLYSRLTVDKSRWQEGNVFSCSVMHEALHNHYTQKSLSLSLG
modifications: Cys229 (EU numbering) sulphur bound to an acetyl arm of the linker; A98K N(eps) acylated by the trivalent linker 4-[bis[2-[(2-acetyl)amino]ethyl]amino]-4-oxo-butanoyl
notes: also called Ex 5.15
B2: (A14E, A21G, A22(GQAP)18, A94G, A95Q, A96A, A97K^, A98P, B29R, desB30 human insulin)/(227A, 234A, 235K, 297E, 315Q, 384Q, des447 hIgG4-Fc(228-447)) … (other)
chain 1: GIVEQCCTSICSLEQLENYCGGQAPGQAPGQAPGQAPGQAPGQAPGQAPGQAPGQAPGQAPGQAPGQAPGQAPGQAPGQAPGQAPGQAPGQAPGQAKP
chain 2: FVNQHLCGSHLVEALYLVCGERGFFYTPR
chain 3: B1 chain 3
modifications: Cys229 (EU numbering) sulphur bound to an acetyl arm of the linker; A97K N(eps) acylated by the trivalent linker 4-[bis[2-[(2-acetyl)amino]ethyl]amino]-4-oxo-butanoyl
notes: also called Ex 5.26
B3: (A14E, A21G, A22(GQAP)24, A118G, A119Q, A120A, A121K^, A122P, B25H, B29R, desB30 human insulin)/(227A, 234A, 235K, 297E, 315Q, 384Q, des447 hIgG4-Fc(228-447)) … (other)
chain 1: GIVEQCCTSICSLEQLENYCGGQAPGQAPGQAPGQAPGQAPGQAPGQAPGQAPGQAPGQAPGQAPGQAPGQAPGQAPGQAPGQAPGQAPGQAPGQAPGQAPGQAPGQAPGQAPGQAPGQAKP
chain 2: FVNQHLCGSHLVEALYLVCGERGFHYTPR
chain 3: B1 chain 3
modifications: Cys229 (EU numbering) sulphur bound to an acetyl arm of the linker; A121K N(eps) acylated by the trivalent linker 4-[bis[2-[(2-acetyl)amino]ethyl]amino]-4-oxo-butanoyl
notes: also called Ex 5.23
B4: A14E, A21G, A22(GQAPGQEP)6, A70K^, A71P, B25H, B29R, desB30 human insulin/(227A, 234A, 235K, 297E, 315Q, 384Q, des447 hIgG4-Fc(228-447)) … (other)
chain 1: GIVEQCCTSICSLEQLENYCGGQAPGQEPGQAPGQEPGQAPGQEPGQAPGQEPGQAPGQEPGQAPGQEPKP
chain 2: FVNQHLCGSHLVEALYLVCGERGFHYTPR
chain 3: B1 chain 3
modifications: Cys229 (EU numbering) sulphur bound to an acetyl arm of the linker; A70K N(eps) acylated by the trivalent linker 4-[bis[2-[(2-acetyl)amino]ethyl]amino]-4-oxo-butanoyl
notes: also called Ex 5.14
B5: A14E, A21G, A22(GQEP)19, A98K^, A99P, B3Q, B25H, B29R, desB30 human insulin/(227A, 234A, 235K, 297E, 315Q, 384Q, des447 hIgG4-Fc(228-447)) … (other)
chain 1: GIVEQCCTSICSLEQLENYCGGQEPGQEPGQEPGQEPGQEPGQEPGQEPGQEPGQEPGQEPGQEPGQEPGQEPGQEPGQEPGQEPGQEPGQEPGQEPKP
chain 2: FVQQHLCGSHLVEALYLVCGERGFHYTPR
chain 3: B1 chain 3
modifications: Cys229 (EU numbering) sulphur bound to an acetyl arm of the linker; A98K N(eps) acylated by the trivalent linker 4-[bis[2-[(2-acetyl)amino]ethyl]amino]-4-oxo-butanoyl
notes: also called Ex 5.2
B6: (A14E, A21G, A22(GQAP)24, A118G, A119Q, A120A, A121K^, A122P, B25H, B29R, desB30 human insulin)/(227A, 234A, 235K, 297E, 315Q, 384Q, des447 hIgG4-Fc(228-447)) … (other)
chain 1: B3 chain 1
chain 2: FVNQHLCGSHLVEALYLVCGERGFHYTPR
chain 3: B1 chain 3
modifications: Cys229 (EU numbering) sulphur bound to an acetyl arm of the linker; A121K N(eps) acylated by the trivalent linker 3,5-bis[(2-acetyl)amino]benzoyl
notes: also called Ex 5.22
B7: (A14E, A21G, A22(GQAP)19, A98K^, A99P, B25H, B29R, desB30 human insulin)/(227A, 234A, 235K, 297E, 315Q, 384Q, des447 hIgG4-Fc(228-447)) … (other)
chain 1: B1 chain 1
chain 2: FVNQHLCGSHLVEALYLVCGERGFHYTPR
chain 3: B1 chain 3
modifications: Cys229 (EU numbering) sulphur bound to an acetyl arm of the linker; A98K N(eps) acylated by the trivalent linker 6-[bis[2-[(2-acetyl)amino]ethyl]amino]-6-oxo-hexanoyl
notes: also called Ex 5.16
B8: A14E, A21G, A22(GQAPGQAPGQAPGQEP)6-GQAP, A122K^, A123P, B25H, B29R, desB30 human insulin/(227A, 234A, 235K, 297E, 315Q, 384Q, des447 hIgG4-Fc(228-447)) … (other)
chain 1: GIVEQCCTSICSLEQLENYCGGQAPGQAPGQAPGQEPGQAPGQAPGQAPGQEPGQAPGQAPGQAPGQEPGQAPGQAPGQAPGQEPGQAPGQAPGQAPGQEPGQAPGQAPGQAPGQEPGQAPKP
chain 2: FVNQHLCGSHLVEALYLVCGERGFHYTPR
chain 3: B1 chain 3
modifications: Cys229 (EU numbering) sulphur bound to an acetyl arm of the linker; A122K N(eps) acylated by the trivalent linker 4-[bis[2-[(2-acetyl)amino]ethyl]amino]-4-oxo-butanoyl
notes: also called Ex 5.20
B9: A14E, A21G, A22(GQEP)6, A46K^, A47P, B25H, B29R, desB30 human insulin/(227A, 234A, 235K, 297E, 315Q, 384Q, des447 hIgG4-Fc(228-447)) … (other)
chain 1: GIVEQCCTSICSLEQLENYCGGQEPGQEPGQEPGQEPGQEPGQEPKP
chain 2: FVNQHLCGSHLVEALYLVCGERGFHYTPR
chain 3: B1 chain 3
modifications: Cys229 (EU numbering) sulphur bound to an acetyl arm of the linker; A46K N(eps) acylated by the trivalent linker 4-[bis[2-[(2-acetyl)amino]ethyl]amino]-4-oxo-butanoyl
notes: also called Ex 5.32
B10: A14E, A21G, A22(GQAPGQAPGQEP)6-GQAP, A98K^, A99P, B3Q, B25H, B29R, desB30 human insulin/(227A, 234A, 235K, 297E, 315Q, 384Q, des447 hIgG4-Fc(228-447)) … (other)
chain 1: B1 chain 1 with A32E, A44E, A56E, A68E, A80E, A92E
chain 2: FVQQHLCGSHLVEALYLVCGERGFHYTPR
chain 3: B1 chain 3
modifications: Cys229 (EU numbering) sulphur bound to an acetyl arm of the linker; A98K N(eps) acylated by the trivalent linker 4-[bis[2-[(2-acetyl)amino]ethyl]amino]-4-oxo-butanoyl
notes: also called Ex 5.13
B11: (A14E, A21G, A22(GQAP)24, A118G, A119Q, A120A, A121K^, A122P, B29R, desB30 human insulin)/(227A, 234A, 235K, 297E, 315Q, 384Q, des447 hIgG4-Fc(228-447)) … (other)
chain 1: B3 chain 1
chain 2: FVNQHLCGSHLVEALYLVCGERGFFYTPR
chain 3: B1 chain 3
modifications: Cys229 (EU numbering) sulphur bound to an acetyl arm of the linker; A121K N(eps) acylated by the trivalent linker 3,5-bis[(2-acetyl)amino]benzoyl
notes: also called Ex 5.29

Positions count from the first letter of the chain named. In names and notes the source's numbering stands.

Sequence of insulin receptor A (P06213 other isoform, or with tags, fused parts or gaps limits assumed): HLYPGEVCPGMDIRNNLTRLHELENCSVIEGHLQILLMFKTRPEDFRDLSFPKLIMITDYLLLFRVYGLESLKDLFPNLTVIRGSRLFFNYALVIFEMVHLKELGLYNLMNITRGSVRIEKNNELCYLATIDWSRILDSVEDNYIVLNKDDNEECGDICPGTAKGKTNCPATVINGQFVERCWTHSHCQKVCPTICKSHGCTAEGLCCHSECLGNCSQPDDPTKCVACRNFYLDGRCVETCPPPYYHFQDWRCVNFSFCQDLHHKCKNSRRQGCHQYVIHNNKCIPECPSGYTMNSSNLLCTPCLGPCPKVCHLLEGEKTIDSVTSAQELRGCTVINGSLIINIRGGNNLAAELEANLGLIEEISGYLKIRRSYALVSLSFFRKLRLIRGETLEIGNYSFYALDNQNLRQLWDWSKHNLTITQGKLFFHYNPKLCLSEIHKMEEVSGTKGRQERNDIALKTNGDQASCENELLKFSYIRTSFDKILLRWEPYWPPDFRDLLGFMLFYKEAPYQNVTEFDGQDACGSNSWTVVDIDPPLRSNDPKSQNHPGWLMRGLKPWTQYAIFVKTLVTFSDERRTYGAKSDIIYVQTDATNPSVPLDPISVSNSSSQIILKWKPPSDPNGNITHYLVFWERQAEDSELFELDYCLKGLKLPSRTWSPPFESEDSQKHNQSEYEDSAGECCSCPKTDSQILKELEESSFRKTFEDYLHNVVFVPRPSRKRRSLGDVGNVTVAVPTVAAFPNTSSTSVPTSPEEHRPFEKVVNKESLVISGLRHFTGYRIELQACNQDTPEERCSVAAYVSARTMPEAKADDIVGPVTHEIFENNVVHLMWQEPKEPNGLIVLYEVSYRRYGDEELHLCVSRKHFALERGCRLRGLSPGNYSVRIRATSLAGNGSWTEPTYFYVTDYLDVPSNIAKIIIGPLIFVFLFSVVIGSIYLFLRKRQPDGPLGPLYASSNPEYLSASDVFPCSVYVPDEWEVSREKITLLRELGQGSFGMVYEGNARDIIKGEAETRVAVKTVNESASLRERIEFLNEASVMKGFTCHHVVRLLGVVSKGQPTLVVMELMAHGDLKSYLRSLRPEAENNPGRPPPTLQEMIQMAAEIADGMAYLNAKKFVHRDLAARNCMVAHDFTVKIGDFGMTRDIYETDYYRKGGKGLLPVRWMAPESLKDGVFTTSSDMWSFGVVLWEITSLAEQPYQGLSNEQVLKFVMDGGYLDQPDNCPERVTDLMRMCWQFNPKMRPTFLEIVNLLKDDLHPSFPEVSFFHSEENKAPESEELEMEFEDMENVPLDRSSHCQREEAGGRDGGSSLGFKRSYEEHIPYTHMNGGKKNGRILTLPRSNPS

The target of the first assay is insulin receptor of isolated rat adipocytes (rat, UniProt P15127 27-1383). The assay is described as follows: cell-based or functional assay.
Sequence of insulin receptor of isolated rat adipocytes (P15127 27-1383): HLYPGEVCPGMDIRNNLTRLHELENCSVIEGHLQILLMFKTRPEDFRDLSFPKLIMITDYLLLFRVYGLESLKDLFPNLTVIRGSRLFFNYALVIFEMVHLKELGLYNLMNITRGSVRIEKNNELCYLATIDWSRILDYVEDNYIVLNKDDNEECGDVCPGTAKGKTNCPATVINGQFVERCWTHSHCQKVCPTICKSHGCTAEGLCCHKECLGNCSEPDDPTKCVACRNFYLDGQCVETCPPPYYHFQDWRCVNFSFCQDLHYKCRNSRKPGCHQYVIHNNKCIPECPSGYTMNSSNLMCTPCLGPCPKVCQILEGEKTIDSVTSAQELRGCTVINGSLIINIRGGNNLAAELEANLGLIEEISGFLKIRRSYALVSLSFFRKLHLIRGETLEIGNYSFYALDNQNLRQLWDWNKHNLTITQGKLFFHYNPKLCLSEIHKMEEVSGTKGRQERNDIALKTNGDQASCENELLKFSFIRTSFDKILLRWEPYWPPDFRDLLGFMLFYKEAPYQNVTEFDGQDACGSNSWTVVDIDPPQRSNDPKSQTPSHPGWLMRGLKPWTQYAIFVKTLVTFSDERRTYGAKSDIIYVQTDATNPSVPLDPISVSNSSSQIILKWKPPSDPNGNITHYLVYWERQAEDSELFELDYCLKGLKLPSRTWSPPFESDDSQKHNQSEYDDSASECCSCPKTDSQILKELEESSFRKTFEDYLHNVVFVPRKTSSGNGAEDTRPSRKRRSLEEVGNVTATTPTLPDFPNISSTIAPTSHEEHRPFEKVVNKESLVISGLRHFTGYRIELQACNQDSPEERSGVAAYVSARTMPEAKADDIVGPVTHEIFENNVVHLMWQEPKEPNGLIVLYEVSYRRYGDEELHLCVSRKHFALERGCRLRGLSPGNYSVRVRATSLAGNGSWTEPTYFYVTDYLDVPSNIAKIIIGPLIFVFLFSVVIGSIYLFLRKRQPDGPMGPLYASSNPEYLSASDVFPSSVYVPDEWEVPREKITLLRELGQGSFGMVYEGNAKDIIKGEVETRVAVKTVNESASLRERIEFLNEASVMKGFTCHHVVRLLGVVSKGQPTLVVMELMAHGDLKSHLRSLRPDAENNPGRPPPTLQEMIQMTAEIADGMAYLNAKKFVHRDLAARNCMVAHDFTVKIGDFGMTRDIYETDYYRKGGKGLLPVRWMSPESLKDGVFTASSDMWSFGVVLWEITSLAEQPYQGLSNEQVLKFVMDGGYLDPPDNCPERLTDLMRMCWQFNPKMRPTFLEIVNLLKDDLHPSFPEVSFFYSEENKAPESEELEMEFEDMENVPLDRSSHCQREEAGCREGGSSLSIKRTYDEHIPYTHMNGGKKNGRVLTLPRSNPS
With B1, the “Lipogenesis in rat adipocytes [Potency (%)] Mean Value” was 3.68 % of human insulin.
The same measure, in the same setting: next, B2: 3.23 % of human insulin; B3: 5.36 % of human insulin.
B4: the “Lipogenesis in rat adipocytes [Potency (%)] Mean Value” is 4.86 % of human insulin.
For B5, the “Lipogenesis in rat adipocytes [Potency (%)] Mean Value” was 3.57 % of human insulin.
Same read-out and setting: next, B6: 4.64 % of human insulin.
With B7, the “Lipogenesis in rat adipocytes [Potency (%)] Mean Value” is 4.34 % of human insulin.
Same read-out and setting: next, B8: 5.41 % of human insulin; B9: 3.72 % of human insulin; B10: 3.07 % of human insulin.
Still for that read-out and setting: with B11 the figure was 2.64 % of human insulin.

Another assay addresses insulin receptor A (UniProt P06213-2 28-1370, limits assumed). The assay is described as follows: insulin receptor binding assay as in Vienberg et al. 2011; relative to human insulin on insulin receptor A (100%).
Take B1: the “Insulin receptor affinity [IC50 relative to HI (%)]” value was 3.68%.
Still for that read-out and setting: with B2 the figure was 3.95%; with B3, 4.7%; with B4, 5.37%.
On the same count and under the same terms, with B5 the figure was 6.1%.
Still for that read-out and setting: next, B6: 3.56%.
On to B7, for which the “Insulin receptor affinity [IC50 relative to HI (%)]” value amounted to 3.86%.
Same read-out and setting: with B8 the figure was 5.49%; with B9, 2.16%.
Still for that read-out and setting: next, B10: 5.55%; B11: 3.06%.
